# Experiment: yeast display, Sf9 membrane polyspecificity reagent, FACS + sequencing; frameworks hold sequencing errors
# Procedure, shortened: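 Nanobodies from a synthetic yeast display library (Saccharomyces cerevisiae BJ5465), induced 36–48 hours with galactose, were stained 1 hour at 4 °C with 10% biotinylated, detergent-solubilized Sf9 membrane reagent, enriched on streptavidin microbeads, then FACS-sorted. Anti-HA (expression) and streptavidin (reagent binding) fluorescence set low and high (top ~1%) gates. Polyreactivity labels come from the gate of origin. Genes were colony-PCR amplified, MiSeq 2 × 250 sequenced and filtered by CDR length.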
row,Sequence,polyreactivity (PSR sort gate)
1,QDQLGESGGGIVQAGGSLRLSCASSGINFLDKAMGWYRPAQGKETELVAAYADSVKGRFTISRDNAKNTVYLQMNSLSAEDTAVYYCNAGWIRYYGFSIVSYDYWGQGTQVTVSS,low polyreactivity
2,QVQLVESGGGLVQAGGSLRLSCASSGSIFVANAMGWYRQAPGKERELVAAISVRGGRTYYADSVKGRFTISRDNAKNTVYLQMNSLKPEDTAVYYCARVLRSDVADYDYWGQGTQVSVSS,high polyreactivity
3,QVQLVESGGGLVQAGGSLRLSCAASGSIFGGYAMGWYRQAPGKERELVASITASGGSTYYADSVKGRFTISRDNAKNTVYLQMNSLKPEDTAVYYCAAEVFSGYDYDYWGQGTQVTVSS,low polyreactivity
4,QVQLQESGGGLVQARGSLRLSCAASGYISHADEMGWYRQAPGKEHELVASFRNGGSTNYADSVKGRFTISRDNAKNTVYLQMNSLKSEDTAVYYCAAWTGQVDIHSYWCQGTQVTVSS,low polyreactivity
5,QVQLVETGGGLVQAGGSLRLSCAASGRIFSVYAMGWYRQAPGKERDLVAGITSSGGSTYYADSVKGRFTISRDNAKNTVYLQMISLKPEDTAGYYCATRQVSRLYPYRYNYWGQGTQVTVSS,high polyreactivity
6,QVQLVESGGGLVQAGGSLRLSCAASGSIIRHNVMVWYRQAPGKERELVAAISGGGGRTYYADSVKGRFTISRDNAKNTVSLQMNRLKPEDTAVYYCNAYVGLSEGDYWGQGTQVTVSS,high polyreactivity
7,QVQLVESGGGLVQAGGSLRLSCAASGRILPFNAMGWHRQAPGKERELVDAIRWRGSSTYYADSVKGRFTISRDNAKNTVYLQMNSLKPEDTAVYYCAAPSSVRGKVISADYGYWGQGTQVTVSS,high polyreactivity
8,QVHLEESGGGLVQAGGSLRLSCAASGRTFYANTMGWYRPAPGKERELVAGITSGGSTSYADSVKGRFTISRDNAKNTVYLQMNSLKPEDTAVYYCAAQFYRYTATGYYADGYWGQGTQVTVSS,low polyreactivity
9,QFQLVESGGGLDQAGGSLRLSCAASGFTFQYYAMGWYRQAPGKERELVAAITRGDSTNYADSVKGRFTISRDNAKNTVYLQMNSLKPEDTAVYYCAAGSAPSYWGGWYYERDYWGQGTQVTVSS,low polyreactivity
10,QVQLVESGGGLVQAGGSLRLSCAASGITFEVNAMGWYRQAPGKERELVARISRDGSTNYADSVKGRFTISRDNAKNTVYLQRNSLKPEDTAVYYCNAKLYRSFDYWGQGTQVTVSS,low polyreactivity
11,QVQLEDSGGGLVQAGGSLRLSCAASGRTFHRNAMGWYRQAPGKERELVAAITGSGGSTYYADSVKGRFTISRDNAKNTVYLQMNSLKPEDTAVYYCATYSYPERTGGQRTHYYWGQGTQVTVSS,high polyreactivity
12,QVQLVESGGGLVQAGGSLRLSCAASGRILYIYAMGWYRQAPGKERELVAAIRSSGGSTYYADSVKGRFTISRDNAKNTVYFQMNSLKPEDTAVYYCAAPDFPKYYPTAYLQADEYWGQGTQVTVSS,high polyreactivity
13,QVQLVESGGGLVQAGGSLRLSCADSGRIFVAYAMGWYRQAPGKERELFADITWSGDITYYADSVKGRFTISRDNAKNTVYLQMNSLKPEDTAVYYCAADYHRRRTDYDYWGQVTQVTVSS,low polyreactivity
14,QVQLVESGGGLVQAGGSLRLSCAASGIIFYRYAMGCYRQAPGKEREFVAAISWSGGSTTYADSVKGRFTISRDNAKNTVYLQMNSLKPEDTAVYYCNADRKYWSLWGPAYDYWGQGTQVTVSS,high polyreactivity
15,QVQIVESGGGLVQAGGSLRLSSASSGRTLRQYAMGWYRPAHWKERDLVAAIRTNGGRTYYADSVMRRFTISRVNSKNTVYLQMNSLKPEDTAVYYCAVYAVVLGVLFDYWGQGTQVTVSS,high polyreactivity
16,QVQLVESGGGLVQAGGSLRLSCAASGSTFCDNSMGWYRQAPGKERELVAAITTSGTSTYYADSVKGRFTISRDNAKNTVYLQMNSLKPEDTAVYYCAAPYGVARFGDYLDDYDYWGQGTQVTVSS,low polyreactivity
17,QVQLVESGGGLVQAGGSLLLSCAASGRTFRPYSMGWYRQAPGKERELVAAITRSGGSTYYADSVKGRFTISRDNEKNTVYLQMNSLKPEDTAVYYCAAYNTYSDTYDYWGQGTQVTVSS,low polyreactivity
18,QVQLVESGGGLVQAGGSLRLTCAASGIIFSGYAMGWYRQAPGTERELVASIRSGSNTYYADSVKGRITISRDNAKYTVYFQMNSLKPEDTGVYYCAADIEYSYFQVFSYNYEYWGQGSQVTVSS,low polyreactivity
19,QVQLVESGGGLVQAGGSLRLSCAASGLTFLVYAMGWYRQAPGKERELVAAITSIGDSTFYADSVKGRFTISRDNAKNTVYLQMNSLKPEDTAVYYCNADGPAGDIKFTLLDYDYWGQGTQVTVSS,low polyreactivity
20,QVQLVESGGGLVQAGGSLRLSCAASGRTFGSNAMGWYRQAPGKERELVAAITSGGGTYYADSVKGRFTISRDNAKNTVYLQMNSLKPEDTAVYYCNKLGTSFRRDYGSWGQGTQVTVSS,low polyreactivity
21,QVQLVESGGGLVQAGGSLRLSCAASGSIFGAYAMGWYRQAPGKERELVAVISRSGGRTYYADSVKGRFTISRDNAKNTVYLQMNSLKPVDTAVYYCAADTRYVQYDYWGQGTQVTVSS,high polyreactivity
22,QVQLVESGGGLVQAGGSIRLSCAASGRIFGRNAMGWYRQAPGKERELVAAISSSGGTYYADSGKGRFTISRDNAKNTVYLQMNSLKPEDTAVYYCNGRVRTQQRWVDYWGQGTQVTVSS,high polyreactivity

row,Sequence,polyreactivity (PSR sort gate)
1,QVQLVESGGGLVQAGGSLRLSCAASGRISVFNAMGWYRQAPGKERELVAAITSGGSTNYADSVKGRFTISRDNAKNTVYLQMNSLKPEDTAVYYSNADVYHSHEPHYDYWGQGTQVTVSS,low polyreactivity
2,QVQLVESGGGLVQAGGSLRLSCAASGSTFYHYAMGWYRQAPGKERELVAAISTGGSTYYADSVKGRFTISRDNAKNTVYLQMNSLKPEDTAVYYCNARYIGGYGYWGQGTQVTVSS,low polyreactivity
3,QVQLEESGGGLVQAGGSLRLSFAAYGRTFGTNPMGWYRQATGKERELVAAITKSSSRTYYADSVKGRFTISRDNAKNTVYLQMNSLKPEDTAVYYCAARYYAVGGYDYWGQGTQVTVSS,high polyreactivity
4,QVQLVESAGGLVQAGGSLRLSCAASGSTFPWNAMGWDRQAPGKERELVAAISKSGGRTYYADSVKGRFTISRDNAKNTVYLQMNSLKPVDTAVYYCAKRYALSVYYRLYDYWGQGTQVTVSS,high polyreactivity
5,QVQLVESGGGIVQAGGSLRLSSAASGRIFDGYTKGWYRHEPGKERQLVAAITYRSGRTYYADSVKGRFTISRDNAKNTVYLQMHSLKPDDTAVYYCAAPWYRGGNTESYYWGQGTQVTVSS,high polyreactivity
6,QVQLVESGGGLVQAGGSLRLSCAASGSTTSVNAMGWYTQAPGKEREFVATISFGGGRTYYADSVKGRFTISRDNAKNTVYLQRNSRKPEDTAVYYCAAVGSRWFSQTWRDYWGQGTQVTVSS,high polyreactivity
7,QVQLVESGGGLVQAGGSLRLSCAASGRTFQWYAMGWYRQAPGKERELVAAISWGGGRTYYADSVKGRFTISRDNAKNTVYLQMNSLKPEDTAVYYCAASYRKLPDKKRYGYWGQGTQVTVSS,high polyreactivity
8,QVQLEESGGALVQAGGSLRLSCAASGNTFGPKAMGWYRQAPGKERELVASINIGGRTNYADSVKGRFTISRDNAKNSVYLQLKSLKPEDTAVYYCNAGSGVQVVWYNAYREYEYWGQGTQVTVSS,low polyreactivity
9,QDQLVESGGGLVQAGGSLRLSCAASGRTFKTYAMGWYRQAPGKERELVAAISYSSGRTYYADSVKGRFTISRDNAKNTVYLQMNSLKPEDTAVYYCASLGSGVPRYYYWGQGTQVTVSS,high polyreactivity
10,QVQLVESGGGLVQAGGSLRLSCAASGRTFRRYAMGWYRQAPGKEREFVAAIRYSGGITYYADSVKGRFTISRDNAKNTVYLQMNSLKPEDTAVYYCAAYGWGNRWYSRFDYWGQGTQVTVSS,high polyreactivity
11,QVQLVESGGGLVQAGGSLRLSCSASGRTFKVYAMGWYRQAPGKERELVAAISYSGAGTRYADSVKGRFTISRDNAKNTVYLQMNSLKPEDTAVYYCNTDAWARVKRYEYWGQGTQVTVSS,low polyreactivity
12,QVQLVESGGGLVQAGGSLRLSCAASGGTFRVYVMGWYRQAPGKERELVAAISRGGGSTYYADSVKGRFTISRDNAKNTVYLQMNSLKPEDTAVYYCAARVWRYPWRASEYDYWGQGTQVTVSS,high polyreactivity
13,QVQLVESGGGLVQAGGSLRLSCAASGRIFHFYAMGWYRQAPGKERELVASITWRGGRTYYADSVKGRFTISRDNAKNTVYLQMNSLKPEDTAVYYCAADFRSGFSSSTTPVQSDWGQGTQVTVSS,low polyreactivity
14,QVQLVESGGGLVQAGGSLRLSCVASGRTLNYNVMGWYRQAPGKERELVAAISWSGGSTYADSVKGRFTISRDNAKNTVYLQMNSLKPEDTAVYYCNKRFTTRVNRRPVYYWGQGTQVTVSS,low polyreactivity
15,QVQLVESGGGLVQAGGSLRLSCAASGITFYYNAMGWYRQAPGKERELVAAISDGSSTNYADSVKGRFTISRDTAKNTVYLQMNSLKPEDTAVYYCNADLVLFPLTWPYYYWGQGTQVTVSS,low polyreactivity
16,QVQLEDSGGGLVQAGGSLRLSCAASGSTFRYYTMGWYRQAPGKEREFVASIRTSGGSTYADSVKGRFTISRDNAKNTVYLQMNSLKPEDTAVYYCAARGGYRYTRYDYWGQGTQVTVSS,high polyreactivity
17,QVQLVESGGGLVQAGGSLRLSCAASGSIFDRYVMGWYRQAPGKERELVAAITTSGDGTYYADSVKGRFTISRDNAKNTVYLQMNSLKPEDTAVYYCAAVRRSWKYSTSDYWGQGTQVTVSS,low polyreactivity
18,QVQLVESGGGLVQAGVSLSLSCADSGSFSDFYAMGWYRQAPGKERELVAAITSSGGSTYYADSVKGRFTISREIAKNTGYLQMNSLKPEDTAVYYCNRYSNLGYNYWGQGTQVSVSS,high polyreactivity
19,QVQLVESGGGLVQAGGRLRLSCAASRRIFDYNDRGWYRQAPGKERELVAAINDDSRTNYADSVKGRFTISRDNAKNTVYLQMNSLKPEDTAVYYCNNVYGRSGIGFDYWGQGTQVTVSS,low polyreactivity
20,QVQLVESGGGLDQAGGSLRLSCAASGSIFDPYAMGWYRPAPGKEREFVAVISKGGTNTYYADSVKGRFTISRDNAKNTVYLQMNSLKPEDTAGYYCAARVDTYRAKYYYWRQGTQVTVSS,high polyreactivity
21,QVQLVESGGGLVQAGGSLRLSCAASGIIFYRYAMGWYRQAPGKERELVARITYNGGRTYYADSVKGRFTISRDNAKKTVYLQMNSLKPEDSAVYYCAARGHGGYYYWGQGTQVTVSS,high polyreactivity
